Results reported in the supplement of paper PMC10567573.

B1: BCL2L13 (parent)
chain: QSLDQEILLKVKTEIEEELKSLDK
B2: RAD51 (parent)
chain: RFLRMLLRLADEFGVAVVITNQVV

Variants of: B1
Experiment: protein stability index of a GFP-peptide fusion (GPS, HEK-293T) (PSI 1-6); higher = more stable
Conditions: c terminus: a fixed tail appended
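Note: lentivirally expressed fusions sorted by FACS into six bins by GFP to DsRed ratio, PSI derived from sequencing read proportions per bin multiplied by bin number.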

Row | Variant | protein stability index
1 | ESLDQEILLKVKTEIEEELKSLDK [Q1E] | 4.67
2 | RSLDQEILLKVKTEIEEELKSLDK [Q1R] | 4.64
3 | CSLDQEILLKVKTEIEEELKSLDK [Q1C] | 4.3
4 | ASLDQEILLKVKTEIEEELKSLDK [Q1A] | 5.04
5 | NSLDQEILLKVKTEIEEELKSLDK [Q1N] | 4.98
6 | TSLDQEILLKVKTEIEEELKSLDK [Q1T] | 4.6
7 | ISLDQEILLKVKTEIEEELKSLDK [Q1I] | 3.44
8 | HSLDQEILLKVKTEIEEELKSLDK [Q1H] | 4.92
9 | FSLDQEILLKVKTEIEEELKSLDK [Q1F] | 3.89
10 | DSLDQEILLKVKTEIEEELKSLDK [Q1D] | 4.78
11 | YSLDQEILLKVKTEIEEELKSLDK [Q1Y] | 3.69
12 | GSLDQEILLKVKTEIEEELKSLDK [Q1G] | 4.67
13 | KSLDQEILLKVKTEIEEELKSLDK [Q1K] | 4.38
14 | LSLDQEILLKVKTEIEEELKSLDK [Q1L] | 3.7
15 | WSLDQEILLKVKTEIEEELKSLDK [Q1W] | 3.55
16 | MSLDQEILLKVKTEIEEELKSLDK [Q1M] | 4.16
17 | SSLDQEILLKVKTEIEEELKSLDK [Q1S] | 4.54
18 | VSLDQEILLKVKTEIEEELKSLDK [Q1V] | 3.97
19 | QSADQEILLKVKTEIEEELKSLDK [L3A] | 5.71
20 | QSEDQEILLKVKTEIEEELKSLDK [L3E] | 5.63
21 | QSKDQEILLKVKTEIEEELKSLDK [L3K] | 4.88
22 | QSDDQEILLKVKTEIEEELKSLDK [L3D] | 5.72
23 | QSCDQEILLKVKTEIEEELKSLDK [L3C] | 4.97
24 | QSFDQEILLKVKTEIEEELKSLDK [L3F] | 4.87

Row | Variant | protein stability index
25 | QSIDQEILLKVKTEIEEELKSLDK [L3I] | 4.72
26 | QSPDQEILLKVKTEIEEELKSLDK [L3P] | 4.59
27 | QSQDQEILLKVKTEIEEELKSLDK [L3Q] | 5.41
28 | QSMDQEILLKVKTEIEEELKSLDK [L3M] | 5.47
29 | QSGDQEILLKVKTEIEEELKSLDK [L3G] | 5.16
30 | QSNDQEILLKVKTEIEEELKSLDK [L3N] | 5.64
31 | QSHDQEILLKVKTEIEEELKSLDK [L3H] | 5.54
32 | QFLDQEILLKVKTEIEEELKSLDK [S2F] | 4.24
33 | QLLDQEILLKVKTEIEEELKSLDK [S2L] | 3.95
34 | QCLDQEILLKVKTEIEEELKSLDK [S2C] | 4.09
35 | QRLDQEILLKVKTEIEEELKSLDK [S2R] | 4.49
36 | QPLDQEILLKVKTEIEEELKSLDK [S2P] | 4.71
37 | QWLDQEILLKVKTEIEEELKSLDK [S2W] | 1.48
38 | QNLDQEILLKVKTEIEEELKSLDK [S2N] | 4.92
39 | QHLDQEILLKVKTEIEEELKSLDK [S2H] | 4.75
40 | QKLDQEILLKVKTEIEEELKSLDK [S2K] | 4.24
41 | QELDQEILLKVKTEIEEELKSLDK [S2E] | 5.52
42 | QVLDQEILLKVKTEIEEELKSLDK [S2V] | 4.16
43 | QTLDQEILLKVKTEIEEELKSLDK [S2T] | 5.16
44 | QYLDQEILLKVKTEIEEELKSLDK [S2Y] | 4
45 | QMLDQEILLKVKTEIEEELKSLDK [S2M] | 4.2
46 | QGLDQEILLKVKTEIEEELKSLDK [S2G] | 3.38
47 | QILDQEILLKVKTEIEEELKSLDK [S2I] | 4.91
48 | QQLDQEILLKVKTEIEEELKSLDK [S2Q] | 4.97

Variants of: B2
Experiment: as above
Conditions: c terminus: a fixed tail appended

Row | Variant | protein stability index
49 | RFLRMLLRLADEFGVAVVITNQVP [V24P] | 2.06
50 | RFLRMLLRLADEFGVAVVITNQVN [V24N] | 1.86
51 | RFLRMLLRLADEFGVAVVITNQVW [V24W] | 1.25
52 | RFLRMLLRLADEFGVAVVITNQVM [V24M] | 2.4
53 | RFLRMLLRLADEFGVAVVITNQVH [V24H] | 3.01
54 | RFLRMLLRLADEFGVAVVITNQVF [V24F] | 2.68
55 | RFLRMLLRLADEFGVAVVITNQVG [V24G] | 2.11
56 | RFLRMLLRLADEFGVAVVITNQVS [V24S] | 1.44
57 | RFLRMLLRLADEFGVAVVITNQVY [V24Y] | 1.6
58 | RFLRMLLRLADEFGVAVVITNQVE [V24E] | 1.41
59 | RFLRMLLRLADEFGVAVVITNQVA [V24A] | 1.89
60 | RFLRMLLRLADEFGVAVVITNQVQ [V24Q] | 2.83
61 | RFLRMLLRLADEFGVAVVITNQVL [V24L] | 2.03
62 | RFLRMLLRLADEFGVAVVITNQVT [V24T] | 1.83
63 | RFLRMLLRLADEFGVAVVITNQVD [V24D] | 2.48
64 | RFLRMLLRLADEFGVAVVITNQVI [V24I] | 3.73
65 | RFLRMLLRLADEFGVAVVITNQVR [V24R] | 2.55
66 | RFLRMLLRLADEFGVAVVITNQVC [V24C] | 2.11
67 | RFLRMLLRLADEFGVAVVITNQVK [V24K] | 1.45
68 | RFLRMLLRLADEFGVAVVITNLVV [Q22L] | 1.68
69 | RFLRMLLRLADEFGVAVVITNSVV [Q22S] | 2.47
70 | RFLRMLLRLADEFGVAVVITNTVV [Q22T] | 1.44
71 | RFLRMLLRLADEFGVAVVITNNVV [Q22N] | 1.85

Row | Variant | protein stability index
72 | RFLRMLLRLADEFGVAVVITNRVV [Q22R] | 2.08
73 | RFLRMLLRLADEFGVAVVITNMVV [Q22M] | 1.65
74 | RFLRMLLRLADEFGVAVVITNPVV [Q22P] | 1.99
75 | RFLRMLLRLADEFGVAVVITNYVV [Q22Y] | 2.77
76 | RFLRMLLRLADEFGVAVVITNVVV [Q22V] | 2.24
77 | RFLRMLLRLADEFGVAVVITNQSV [V23S] | 2.56
78 | RFLRMLLRLADEFGVAVVITNQRV [V23R] | 1.09
79 | RFLRMLLRLADEFGVAVVITNQDV [V23D] | 2.64
80 | RFLRMLLRLADEFGVAVVITNQAV [V23A] | 2.66
81 | RFLRMLLRLADEFGVAVVITNQPV [V23P] | 2.23
82 | RFLRMLLRLADEFGVAVVITNQNV [V23N] | 1.9
83 | RFLRMLLRLADEFGVAVVITNQIV [V23I] | 3.7
84 | RFLRMLLRLADEFGVAVVITNQYV [V23Y] | 1.5
85 | RFLRMLLRLADEFGVAVVITNQTV [V23T] | 1.51
86 | RFLRMLLRLADEFGVAVVITNQHV [V23H] | 2.07
87 | RFLRMLLRLADEFGVAVVITNQFV [V23F] | 3.02
88 | RFLRMLLRLADEFGVAVVITNQKV [V23K] | 2.73
89 | RFLRMLLRLADEFGVAVVITNQLV [V23L] | 2.38
90 | RFLRMLLRLADEFGVAVVITNQMV [V23M] | 2.37
91 | RFLRMLLRLADEFGVAVVITNQQV [V23Q] | 1.98
92 | RFLRMLLRLADEFGVAVVITNQWV [V23W] | 1.98
93 | RFLRMLLRLADEFGVAVVITNQCV [V23C] | 2.69
94 | RFLRMLLRLADEFGVAVVITNQEV [V23E] | 1.9
